T1: PUF4 RNA-binding domain (Saccharomyces cerevisiae, UniProt P25339 537-888)
T1 sequence: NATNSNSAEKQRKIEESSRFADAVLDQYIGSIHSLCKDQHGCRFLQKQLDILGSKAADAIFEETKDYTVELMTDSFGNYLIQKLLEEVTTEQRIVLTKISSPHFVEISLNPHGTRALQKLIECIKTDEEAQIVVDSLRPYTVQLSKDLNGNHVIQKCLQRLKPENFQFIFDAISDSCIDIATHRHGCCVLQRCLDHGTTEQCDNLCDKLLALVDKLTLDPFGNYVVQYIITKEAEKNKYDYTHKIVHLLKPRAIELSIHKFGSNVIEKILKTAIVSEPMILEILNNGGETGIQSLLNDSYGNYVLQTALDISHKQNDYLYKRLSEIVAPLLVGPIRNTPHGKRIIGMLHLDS

B1: Id_ii_S1_P3E.3_K3.2_C3.2_[C-2T]_[T-1A]_H3.2_A3.1_F3.1_T3.2_[T9G]_[A10C] (ssRNA)
RNA: UCUCUUUAUAUAUAUAGCUCUCUU
B2: Id_ii_S1_P3E.3_K3.2_C3.2_[C-2T]_[T-1C]_H3.2_A3.1_F3.1_T3.2_[T9A]_[A10T] (ssRNA)
RNA: UCUCUUUCUAUAUAUAAUUCUCUU
B3: Id_ii_S1_P3E.3_K3.2_C3.2_[C-2G]_H3.2_A3.1_F3.1_T3.2_[T9A]_[A10T] (ssRNA)
RNA: UCUCUUGUUAUAUAUAAUUCUCUU
B4: Id_ii_S1_P3E.3_K3.2_C3.2_[C-2G]_H3.2_A3.1_F3.1_T3.2_[A10C] (ssRNA)
RNA: UCUCUUGUUAUAUAUAUCUCUCUU
B5: Id_ii_S1_P3E.2_K3.1_C3.2_H3.1_A3.1_F3.1_T3.2_[A10T] (ssRNA)
RNA: UCUCUUCUUGUAUAUAUUUCUCUU
B6: Id_ii_S1_P3E.3_K3.2_C3.2_[C-2G]_H3.2_A3.1_F3.1_T3.2_[T9C]_[A10T] (ssRNA)
RNA: UCUCUUGUUAUAUAUACUUCUCUU
B7: Id_ii_S1_P3E.3_K3.2_C3.2_[C-2G]_[T-1G]_H3.2_A3.1_F3.1_T3.2_[T9G]_[A10T] (ssRNA)
RNA: UCUCUUGGUAUAUAUAGUUCUCUU
B8: Id_ii_S1_P3E.3_K3.2_C3.2_[C-2T]_[T-1C]_H3.2_A3.1_F3.1_T3.2_[T9C]_[A10C] (ssRNA)
RNA: UCUCUUUCUAUAUAUACCUCUCUU
B9: Id_ii_S1_P3E.3_K3.2_C3.2_[C-2G]_[T-1A]_H3.2_A3.1_F3.1_T3.2_[T9A]_[A10T] (ssRNA)
RNA: UCUCUUGAUAUAUAUAAUUCUCUU
B10: Id_ii_S1_P3E.3_K3.2_C3.2_[C-2T]_[T-1G]_H3.2_A3.1_F3.1_T3.2_[A10G] (ssRNA)
RNA: UCUCUUUGUAUAUAUAUGUCUCUU
B11: Id_ii_S1_P3E.3_K3.2_C3.2_[C-2G]_H3.2_A3.1_F3.1_T3.2_[T9A] (ssRNA)
RNA: UCUCUUGUUAUAUAUAAAUCUCUU
B12: Ib_S1_P4E.1_K4.1_C4.1_H4.1_[T1C]_A4.1_[A6G]_F4.1_T4.1 (ssRNA)
RNA: UCUCUUCGUAUGUUAUCUCUU
B13: Ib_S1_P4E.1_K4.1_C4.1_H4.1_[T1A]_A4.1_[T5C]_F4.1_T4.1 (ssRNA)
RNA: UCUCUUAGUACAUUAUCUCUU
B14: Id_ii_S1_P3E.3_K3.2_C3.2_[C-2G]_[T-1C]_H3.2_A3.1_F3.1_T3.2_[A10G] (ssRNA)
RNA: UCUCUUGCUAUAUAUAUGUCUCUU
B15: Id_ii_S1_P3E.2_K3.1_C3.2_[T-1A]_H3.1_A3.1_F3.1_T3.2_[A10T] (ssRNA)
RNA: UCUCUUCAUGUAUAUAUUUCUCUU
B16: Id_ii_S1_P3E.3_K3.2_C3.2_[C-2G]_H3.2_A3.1_F3.1_T3.2_[T9C]_[A10G] (ssRNA)
RNA: UCUCUUGUUAUAUAUACGUCUCUU
B17: Id_ii_S1_P3E.3_K3.2_C3.2_[C-2G]_[T-1C]_H3.2_A3.1_F3.1_T3.2_[T9C]_[A10T] (ssRNA)
RNA: UCUCUUGCUAUAUAUACUUCUCUU
B18: Id_ii_S1_P3E.2_K3.1_C3.2_H3.1_A3.1_F3.1_T3.2_[T9G]_[A10C] (ssRNA)
RNA: UCUCUUCUUGUAUAUAGCUCUCUU
B19: Id_ii_S1_P3E.3_K3.2_C3.2_[C-2T]_[T-1G]_H3.2_A3.1_F3.1_T3.2_[A10C] (ssRNA)
RNA: UCUCUUUGUAUAUAUAUCUCUCUU
B20: Id_ii_S1_P3E.3_K3.2_C3.2_[C-2T]_[T-1A]_H3.2_A3.1_F3.1_T3.2_[T9C]_[A10G] (ssRNA)
RNA: UCUCUUUAUAUAUAUACGUCUCUU
B21: Id_ii_S1_P3E.2_K3.1_C3.2_H3.1_A3.1_F3.1_T3.2_[T9C]_[A10C] (ssRNA)
RNA: UCUCUUCUUGUAUAUACCUCUCUU
B22: Ib_S1_P4E.1_K4.1_C4.1_H4.1_[T1A]_A4.1_[T5A]_F4.1_T4.1 (ssRNA)
RNA: UCUCUUAGUAAAUUAUCUCUU
B23: Id_ii_S1_P3E.3_K3.2_C3.2_[C-2T]_[T-1G]_H3.2_A3.1_F3.1_T3.2_[T9A]_[A10G] (ssRNA)
RNA: UCUCUUUGUAUAUAUAAGUCUCUU
B24: Id_ii_S1_P3E.3_K3.2_C3.2_[C-2T]_[T-1C]_H3.2_A3.1_F3.1_T3.2_[T9C]_[A10G] (ssRNA)
RNA: UCUCUUUCUAUAUAUACGUCUCUU
B25: Id_ii_S1_P3E.3_K3.2_C3.2_[C-2T]_[T-1C]_H3.2_A3.1_F3.1_T3.2_[A10C] (ssRNA)
RNA: UCUCUUUCUAUAUAUAUCUCUCUU
B26: Id_ii_S1_P3E.3_K3.2_C3.2_[C-2G]_H3.2_A3.1_F3.1_T3.2 (ssRNA)
RNA: UCUCUUGUUAUAUAUAUAUCUCUU
B27: Id_ii_S1_P3E.2_K3.1_C3.2_H3.1_A3.1_F3.1_T3.2_[T9A]_[A10C] (ssRNA)
RNA: UCUCUUCUUGUAUAUAACUCUCUU
B28: Ib_S1_P4E.1_K4.1_C4.1_H4.1_[T1C]_A4.1_[A6T]_F4.1_T4.1 (ssRNA)
RNA: UCUCUUCGUAUUUUAUCUCUU
B29: Id_ii_S1_P3E.3_K3.2_C3.2_[C-2T]_[T-1C]_H3.2_A3.1_F3.1_T3.2_[A10T] (ssRNA)
RNA: UCUCUUUCUAUAUAUAUUUCUCUU
B30: Id_ii_S1_P3E.3_K3.2_C3.2_[C-2G]_H3.2_A3.1_F3.1_T3.2_[A10G] (ssRNA)
RNA: UCUCUUGUUAUAUAUAUGUCUCUU
B31: Id_ii_S1_P3E.3_K3.2_C3.2_[C-2T]_[T-1G]_H3.2_A3.1_F3.1_T3.2_[T9A]_[A10C] (ssRNA)
RNA: UCUCUUUGUAUAUAUAACUCUCUU
B32: Id_ii_S1_P3E.3_K3.2_C3.2_[C-2G]_[T-1C]_H3.2_A3.1_F3.1_T3.2_[A10C] (ssRNA)
RNA: UCUCUUGCUAUAUAUAUCUCUCUU

target: T1, PUF4 RNA-binding domain; assay: Mg; RNA-MaP; 20 mM Na-HEPES pH 7.4, 30 mM KOAc, 0.75 mM MgCl2, 0.1% Tween-20, 5% glycerol, 0.1 mg/mL BSA, 2 mM DTT; 25 C; 0.0125-409.6 nM protein; details: tags: N-His6-TEV cleaved; C-SNAP kept, Cy3B-labelled; label: tethered on chip by stalled RNA polymerase

Row | Binder | Kd [nM]
1 | B1 | 148
2 | B2 | 1010
3 | B3 | 44.6
4 | B4 | 24.8
5 | B5 | 5.12
6 | B6 | 51.5
7 | B7 | 124
8 | B8 | 1390
9 | B9 | 1040
10 | B10 | 4.85
11 | B11 | 50
12 | B12 | > 2300
13 | B13 | 39.1
14 | B14 | 754
15 | B15 | 8.07
16 | B16 | 55.2

Row | Binder | Kd [nM]
17 | B17 | 853
18 | B18 | 4.12
19 | B19 | 3.36
20 | B20 | 503
21 | B21 | 7.41
22 | B22 | 491
23 | B23 | 8.25
24 | B24 | 1450
25 | B25 | 602
26 | B26 | 41.1
27 | B27 | 8.53
28 | B28 | 591
29 | B29 | 591
30 | B30 | 46.3
31 | B31 | 4.91
32 | B32 | 545
